One block for each binder: values may come before it.
Assays:
[1] = molecular target: the molecule itself; test: AUC; sedimentation velocity (SV-AUC), 50 µM protein, 20 °C, 50,000 rpm, absorbance at 280 nm, 20 mM Tris-HCl pH 8.0, SEDFIT c(S) model; buffer (Tris-HCl vs PBS) and salt did not affect the oligomerization state
[2] = molecular target: F-actin (skeletal muscle actin, polymerised) ( (rabbit or chicken skeletal …, UniProt P68135 1-377)); test: cell-based or functional assay

B1: N-CAP2, N-terminal fragment of human cyclase-associated protein 2 (original coiled coil and helical folded domain) (domain or fragment, UniProt P40123 1-220, looked up)
chain: MANMQGLVERLERAVSRLESLSAESHRPPGNCGEVNGVIAGVAPSVEAFDKLMDSMVAEFLKNSRILAGDVETHAEMVHSAFQAQRAFLLMASQYQQPHENDVAALLKPISEKIQEIQTFRERNRGSNMFNHLSAVSESIPALGWIAVSPKPGPYVKEMNDAATFYTNRVLKDYKHSDLRHVDWVKSYLNIWSELQAYIKEHHTTGLTWSKTGPVASTVS
notes: cyclase-associated protein 2 (CAP2), human; N-terminal coiled coil (a.a. 1-29) followed by the helical folded domain (HFD); Cloned in pET21b; 30-220, so this construct probably ends at 220 (surmised); also called CAP2 tetramer; not shown: 6xHis, C-terminal, kept
stoichiometry N [1]: 4

potentiation of F-actin severing by 50 nM CFL1 with 750 nM N-CAP construct, single filaments by TIRF microscopy, against CFL1 alone [2]: > 2.5 fold
B2: N-CAP1, N-terminal fragment of human cyclase-associated protein 1 (original coiled coil and helical folded domain) (domain or fragment, UniProt Q01518 1-220, looked up)
chain: MADMQNLVERLERAVGRLEAVSHTSDMHRGYADSPSKAGAAPYVQAFDSLLAGPVAEYLKISKEIGGDVQKHAEMVHTGLKLERALLVTASQCQQPAENKLSDLLAPISEQIKEVITFREKNRGSKLFNHLSAVSESIQALGWVAMAPKPGPYVKEMNDAAMFYTNRVLKEYKDVDKKHVDWVKAYLSIWTELQAYIKEFHTTGLAWSKTGPVAKELSGL
notes: cyclase-associated protein 1 (CAP1), human; N-terminal coiled coil (a.a. 1-29) followed by the helical folded domain (HFD); Cloned in pET21b; also called CAP1 tetramer; not shown: 6xHis, C-terminal, kept
stoichiometry N [1]: 4

Source: article PMC6888645, “Oligomerization Affects the Ability of Human Cyclase-Associated Proteins 1 and 2 to Promote Actin Severing by Cofilins” (International Journal of Molecular Sciences, 2019)
